Data taken from patent US7348154B2, “IGF binding proteins” (Genentech, Inc., priority 2003, dated 2008).

Columns and labels:
[1] = target: T1, native-sequence human IGFBP-3 (Homo sapiens, UniProt P17936, A32G); assay: BIAcore competition: bp15 versus immobilized biotinylated IGF-I and -II for binding to IGFBP-3; conditions: 15 nM to 100 µM bp15, 20 nM IGFBP-3, 1 hour at room temperature
T1 construct: “wild-type IGFBP-3,” and “full-length IGFBP-3” is wild-type human IGFBP-3; made in house; host or cells: E. coli BL21, vector pET21a
T1 sequence (P17936 28-291 A32G): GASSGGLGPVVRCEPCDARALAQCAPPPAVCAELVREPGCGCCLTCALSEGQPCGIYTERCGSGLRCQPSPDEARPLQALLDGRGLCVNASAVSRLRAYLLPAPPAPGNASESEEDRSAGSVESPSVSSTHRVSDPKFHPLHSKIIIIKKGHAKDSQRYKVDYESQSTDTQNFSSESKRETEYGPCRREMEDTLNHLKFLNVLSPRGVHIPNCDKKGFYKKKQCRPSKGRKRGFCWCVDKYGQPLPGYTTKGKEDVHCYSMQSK
Description: A total of 15 nM to 100:M bp15 peptide and 20 nM native-sequence human IGFBP-3 were incubated for 1 hour at room temperature before injection over immobilized biotinylated native-sequence human IGF-I and -II.
Competition binding experiments were carried out as follows. 15 nM to 100:M bp15 peptide and 20 nM IGFBP-3 were incubated for 1 hour at room temperature before injection at 20:l/min in PBST over immobilized biotinylated IGF-I and -II. Equilibrium binding data was plotted in GraphPad Prism™ software and fit to a one-site competition-binding model.
(§1) Peptide bp15 ([…]) (SEQ ID NO:11) was identified by phage display (Lowman et al., Biochemistry, 1998, supra). […] Therefore, bp15 was tested to see if it would bind to the miniBP-3 fusion. Compare FIGS. 7 and 8 for competitive binding data for bp15 to IGFBP-3 and to the miniBP-3 fusion, respectively.

[2] = target: T2, miniBP-3 fusion protein (Homo sapiens, UniProt P17936); assay: BIAcore competition: bp15 versus immobilized biotinylated IGF-I for binding to miniBP-3 fusion protein; conditions: 1.17 to 300 µM bp15, 1 µM miniBP-3 fusion; exact affinity not determined due to lack of saturation
T2 construct: made in house; host or cells: E. coli BL21, vector pET21a; purified on IgG Sepharose
T2 sequence (P17936 74-126, added parts left off): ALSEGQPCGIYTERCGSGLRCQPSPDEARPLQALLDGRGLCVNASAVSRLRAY
Description: as §1

[3] = target: native-sequence human IGF-I (Homo sapiens, UniProt P05019); assay: BIAcore kinetic analysis of binding to IGF-I
native-sequence human IGF-I, sequence (P05019 49-118 limits assumed): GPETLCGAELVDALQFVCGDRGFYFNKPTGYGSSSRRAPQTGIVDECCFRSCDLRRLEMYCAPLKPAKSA
Description: (§2) Two types of chips were prepared for this purpose.
(§3) Carboxymethylated dextran biosensor chips (CM5, BIAcore Inc.) were activated with EDC (N-ethyl-N′-(3-dimethylaminopropyl)-carbodiimide hydrochloride) and NHS(N-hydroxysuccinimide) according to the supplier's instructions. For immobilization, wild-type IGFBP-3 and mutants in 10 mM sodium acetate, pH 4, were injected onto the biosensor chip at a concentration of 0.2 mg/ml to yield approximately 450-700 RU's (resonance-response units) of covalently coupled protein. Unreacted groups were blocked with an injection of 1 M ethanolamine.
(§4) Kinetic measurements were carried out by injecting two-fold serial dilutions of IGF-I or IGF-II in PBST running buffer (PBS, 0.05% TWEEN-20™ buffer, 0.01% sodium azide) at 25° C. using a flow rate of 20 or 50:l/min. IGF concentrations ranged between 0.4 nM and 50 nM for IGFBP-3 and 100 nM to 25:M for miniBP-3 fusion. For both proteins, association and dissociation rates were calculated using a 1:1 Langmuir association model in the BIAcore™ evaluation software. For wild-type IGFBP-3, the equilibrium dissociation constant was calculated as kd/ka. For miniBP-3 fusion, the equilibrium dissociation constant was calculated by plotting equilibrium binding data in GraphPad Prism™ software (GraphPad Software Inc., San Diego, Calif.) and fitting to a one-site binding model.
(§5) Streptavidin-coated chips were conditioned according to the manufacturer's instructions (BIAcore, Inc.) prior to injection of 0.02 mg/ml of biotinylated IGF-I or IGF-II in 10 mM sodium acetate pH 4. Biotinylated IGF-I and IGF-II were prepared using EZ-Link biotinylation reagents according to the manufacturer's instructions (Pierce). Between 100 and 1000 RUs were immobilized on the chip.
(§6) Concentrations were between 250 nM and 32:M.

[4] = target: native-sequence human IGF-II (Homo sapiens, UniProt P01344); assay: BIAcore kinetic analysis of binding to IGF-II
native-sequence human IGF-II, sequence (P01344 25-91 limits assumed): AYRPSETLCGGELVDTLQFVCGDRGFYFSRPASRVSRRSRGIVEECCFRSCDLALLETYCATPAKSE
Description: as §2, §3, §4, §5, §6

[5] = IGF-I injected over immobilized wild-type IGFBP-3, 25° C., 1:1 Langmuir model
[6] = wild-type IGFBP-3, calculated as kd/ka
[7] = IGF-II injected over immobilized wild-type IGFBP-3, 25° C., 1:1 Langmuir model

Substance	competition with IGF-I and -II for binding to IGFBP-3 [1]	binding to miniBP-3 fusion [2]	ka [3, 5]	kd [3, 5]	Kd [3, 6] [nM]	ka [4, 7]	kd [4, 7]	Kd [4, 6] [nM]
SEEVCWPVAEWYLCN (Sequence is synthesized) [bp15]	competes with IGF-I and -II for binding to IGFBP-3	does bind to the miniBP-3 fusion, but with reduced affinity compared to wild-type IGFBP-3	–	–	–	–	–	–
Wild-type IGFBP-3: wild-type human IGFBP-3 (SEQ ID NO:1 or 12), produced in E. coli and refolded	–	–	715 ± 3.66 ×10^4 M^−1 s^−1	7.58 ± 0.07 ×10^−4 s^−1	0.11 ± 0.001	348 ± 1.02 ×10^4 M^−1 s^−1	4.07 ± 0.05 ×10^−4 s^−1	0.12 ± 0.001
